Test results reported in patent US20230094463A1, “ANTIBODIES THAT DISRUPT THE INTERACTION OF GAL3 AND INSULIN RECEPTOR OR INTEGRINS AND METHODS OF USE THEREOF” (TrueBinding, Inc., priority 2019, published 2023).
Positions count from the first letter of the chain named. Numbers in names are those of the source. Values belong to the molecule of their own block, whether it stands above or below them.

Columns and labels:
[1] = biological target: T1, Gal3 peptides (SEQ ID NOs: 3-26) (Homo sapiens, UniProt P17931); assay: Gal3 peptide library binding ELISA (epitope mapping); details: for binding to Gal3 Peptide 1: Peptide 1 (SEQ ID NO: 3), amino acids 1-20 of Gal3; for binding to Gal3 Peptide 7: Peptide 7 (SEQ ID NO: 9), amino acids 61-80 of Gal3; for binding to Gal3 Peptide 6: Peptide 6 (SEQ ID NO: 8); for binding to Gal3 Peptide 4: Peptide 4 (SEQ ID NO: 6), amino acids 31-50 of Gal3
T1 construct: a library of 24 amino acid peptides representing portions of Gal3; purchased LifeTein custom order
Procedure: To identify the epitopes to which Gal3 antibodies with and without Gal3-INSR blocking activity bound, a library of 24 amino acid peptides representing portions of Gal3, depicted in FIG. 27, was produced and the ability of each peptide to bind Gal3 antibodies was evaluated by ELISA. At least 2 μg/ml of hGal3 peptide in 50 μl of PBS or 0.1 μg/ml of full-length human Gal3 protein (GenScript) and human Galectin-3 protein (Acro Biosystems, GA3-H5129) were diluted in PBS (Corning, 21-030-CM) to concentrations of at least 2 μg/ml or 0.1 μg/ml, respectively, and added to the wells of a 96-well ELISA plate (Thermo Fisher, 44-2404-21). After incubating the plate at 4° C. overnight, the plate was washed three times with PBST (PBS with 0.05% Tween 20 [VWR, 0777]). The plate was then blocked for an hour with 2% BSA (EMD Millipore, 126609) in PBST at room temperature with gentle rocking. Thereafter, the 2% BSA in PBST was discarded and human Galectin-3 hybridoma supernatants or antibodies were diluted in 2% BSA in PBST to concentrations of at least 0.1 μg/ml and added to the wells. The plate was incubated for an hour at room temperature with gentle rocking and then washed three times with PBST. Afterwards, Goat Anti-Mouse IgG-HRP (Jackson ImmunoResearch, 115-036-1461) or Goat Anti-Rat IgG HRP (Abcam, ab205720) diluted in 2% BSA in PBST (1:4000) were added to the wells. The plate was incubated for 30 minutes to 1 hour at room temperature with gentle rocking and then washed three times with PBST. TMB substrate (Thermo Scientific, 34029) was then added to each well. The reaction was stopped with 1M HCl (JT Baker, 5620-02) and read using a plate reader (Molecular Devices) at absorbance of 450 nm.
Human Gal3 peptides (LifeTein, custom order) and human Gal3 proteins (R&D Systems, 8259-GA; TrueBinding, QCB200349) were diluted in PBS (Corning, 21-030-CM) to concentrations of at least 100 μg/mL (peptides) or 1 μg/mL (proteins), and added to the wells of several 96-well ELISA plates (Thermo Fisher, 44-2404-21). After incubating the plates at 4° C. overnight, the plates were washed three times with PBST (PBS with 0.05% Tween 20 [VWR, 0777]). The plates were then blocked for an hour with 2% BSA (EMD Millipore, 126609) in PBST at room temperature with gentle rocking. Thereafter, the 2% BSA in PBST was discarded and Gal3-binding antibodies (reformatted hIgG4 [S228P]) were diluted in 2% BSA in PBST to concentrations of 5 μg/mL and added to the wells. The plates were incubated for an hour at room temperature with gentle rocking and then washed three times with PBST. Afterwards, Peroxidase AffiniPure F(ab′)2 Fragment Goat Anti-Human IgG (H+L) polyclonal antibody (Jackson ImmunoResearch, 109-036-003), was diluted in 2% BSA in PBST (1:4000) and added to the wells. The plates were incubated for 1 hour at room temperature with gentle rocking and then washed three times with PBST. TMB substrate (Thermo Scientific, 34029) was then added to each well. The reaction was stopped with 1M HCl (JT Baker, 5620-02) and read using a plate reader (Molecular Devices) at absorbance of 450 nm.

[2] = biological target: T2, human Gal3 (Homo sapiens, UniProt P17931); assay: Antibody binning assays (competition for binding to Gal3); details: binning per Examples 3 and 18
T2 construct: His; purchased AcroBio GA3-H5129
Procedure: To determine whether Gal3-binding antibodies with Gal3-INSR blocking activity bind to the same or overlapping regions of the Gal3 molecule, antibody binning assays were performed to assess the ability of antibodies to simultaneously bind Gal3. Amine-reactive probes were loaded onto a Gator biosensor (Probe Life, Palo Alto, Calif.), equilibrated in dH20 for 60 seconds, dipped into 100 μl EDC 0.2M/NHS 0.05M activation buffer for 30 seconds, then dipped into a solution of […] human Gal3-His in 10 mM NaOAc buffer, pH 5 until binding was saturated, and quenched in 1 M ethanolamine pH 8.5 for 300 seconds. Following Gal3-His loading, tips were dipped in 20 μg/mL saturating antibody, then successively dipped into 5 μg/mL competing antibody.
The epitope binning assay was done in a sandwich format on the high-throughput SPR-based Carterra LSA unit (CarterraBio, Salt Lake City, Utah). First, the purified antibodies were diluted to 10 μg/ml concentration in 10 mM NaOAc (pH 5.0) and then were covalently coupled via amine group to HC200M chip activated by EDC and S-NHS to immobilize antibodies to different positions of a 384-spot array. One hundred thirty-eight binning cycles were run on the array of immobilized antibodies. In each cycle, first, human Gal3 (AcroBio GA3-H5129) was injected over the entire array to bind to different antibodies (primary antibody), followed by one antibody (secondary antibody) selected among the panel of 150 anti-GAL3 antibodies tested. At the end of each cycle, the array was regenerated by 10 mM Glycine (pH 2.0) to remove bound antigen and secondary antibody from the array. The data analysis was done using the Epitope software by CarterraBio.

T2 sequence (P17931 whole entry): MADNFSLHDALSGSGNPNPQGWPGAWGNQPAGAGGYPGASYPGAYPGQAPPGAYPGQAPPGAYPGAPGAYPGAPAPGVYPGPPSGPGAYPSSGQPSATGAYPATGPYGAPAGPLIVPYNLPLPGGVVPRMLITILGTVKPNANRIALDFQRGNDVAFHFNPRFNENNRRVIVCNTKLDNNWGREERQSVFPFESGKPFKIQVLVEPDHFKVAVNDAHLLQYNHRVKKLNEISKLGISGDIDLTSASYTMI

B4: F846C.1B2: anti-Gal3 antibody (antibody, V domains shown)
VH: QIQLVQSGPELKKPGETVKISCKASGYTFTNYGMNWVKQAPGKGLKWMGWINTYTGEPSYADDFKGRFAFSLETSASTAYLQINNLKNEDMATYFCARWGGYAGDYYAMDFWGQGTSVTVSS
VL: NIWLTQSPSSLAVSAGEMVTMTCKSSQSVLYSSNQKNYLAWYQQKPGQSPKLLIYWASTRESGVPDRFTGSGSGTDFSLTISSVQAEDLAVYYCHQYLSSLTFGAGTKLELK
binding to Gal3 Peptide 5 ([1]; Peptide 5 (SEQ ID NO: 7)): bind
binding to Gal3 Peptide 6 ([1]; amino acids 51-70 of Gal3): bind and bound
binding to Gal3 Peptide 7 [1]: bind and bound

B5: F846C.2H3: anti-Gal3 antibody (antibody, V domains shown)
VH: B4 VH with A103D, F111Y
VL: B4 VL with W3M, L4M, M18K, T22S, S78T, A86P
binding to Gal3 Peptide 6 ([1]; amino acids 51-70 of Gal3): bind and bound

B6: 20D11.2C6: anti-Gal3 monoclonal antibody (antibody, V domains shown)
VH: EVQLQQSGPELVKPGASVKISCKASGYTFTDFYINWVKQSHGKSLEWIGDINPKNGGINYNPKFKIKATLTVDKSSSTSYMDLRGLTSEDSAVYYCTSGYGFPYWGQGTLVTVSA
VL: DIQMNQSPSSLSASLGDTITITCRASQNIYIWLSWYQQKPGNIPKLLIYKASNLHTGVPSRFSGSGSGTDFTLTISTLQPEDIATYFCLQGQSYPLTFGAGTKLEMK
epitope bin (competitive binding to Gal3) [2]: bins 5
binding to Gal3 Peptide 1 [1]: bind and bound
binding to Gal3 Peptide 6 ([1]; amino acids 51-70 of Gal3): bound
binding to Gal3 Peptide 7 [1]: bind and bound

B7: F846C.1H5: anti-Gal3 antibody (antibody, V domains shown)
VH: EVQLLESGGGLVKPGGSLKLSCAASGFTFSSYAMSWVRQTPEKRLEWVASISSGGDTYYPDSVKGRFTISRDNARNILYLQMSSLRSEDTAMYYCASYGNSLFDYWGQGTTLTVSS
VL: DVVMTQTPLSLPVSLGDQASISCRSSQSLVHNSGNTYLHWYLQRPGQSPNLLIYKVSNRFSGVPDRFSGSGSGTDFTLKISRVAAEDLGVYFCSQSTHVPPTFGGGTKLEIK
binding to Gal3 Peptide 1 [1]: bind and bound

B8: 19B5.2E6: anti-Gal3 monoclonal antibody (antibody, V domains shown)
VH: QIQLVQSGPELKKPGETVKISCKASGYTFTTYAMSWVKQAPGKGLKWMGWINTYSGVPTYADDLKGRFAFSLETSASTAYLQINNLKNEDTATYFCARGPYAMDYWGQGTSVTVSS
VL: DIQMTQTTSSLSASLGDRVTISCSASQGINNYLNWYQQKPDGTVKLLIYYASSLHSGVPSRFSGSGSGTDYSLTISNLEPEDIATYYCQQYSQVPYTFGSGTKLEIK
epitope bin (competitive binding to Gal3) [2]: bin 3
binding to Gal3 Peptide 1 [1]: bind and bound
binding to Gal3 Peptide 7 [1]: bind and bound

B9: 13A12.2E5: anti-Gal3 monoclonal antibody (antibody, V domains shown)
VH: QIQLVQSGPELKKPGETVKISCKTSGYKFKTYVMSWVKQAPGKALKWMGWINTYSGVPTYADDFKGRFAFSLETSASTAYLEIINLKNEDTATYFCARDGNYGDPMDYWGQGTSVTVSS
VL: DVVMTQTPLTLSVAIGQPASISCKSSQSLLYTNGKTYLNWLLQRPGQSPKRLIYLLSKLDSGVPDRFSASGSGTDFTLKISRVEAEDLGVYYCLQSTHFPLTFGAGTKLEMK
binding to Gal3 Peptide 4 [1]: bind
binding to Gal3 Peptide 6 ([1]; amino acids 51-70 of Gal3): bind and bound

B11: 15F10.2D6: anti-Gal3 monoclonal antibody (antibody, V domains shown)
VH: EVQLVESGGGLVKPGGSLKLSCAASGFAFSSYAMSWVRQTPEKRLEWVATISDGGVYTYYTDHVKGRFTISRDNAEDNLYLQMSHLKSEDTAMYYCVRDGGYWGQGTTLTVSS
VL: DVLMTQTPLSLPVSLGDQASISCRSSQSIVHNNGNTYLEWYLQKPGQSPKLLIYKVSNRFSGVPDRFSGSGSGTDFTLKISRVEAEDLGVYYCFQGSHVPLTFGGGTKLELK
epitope bin (competitive binding to Gal3) [2]: bin 8
binding to Gal3 Peptide 2 ([1]; Peptide 2 (SEQ ID NO: 4)): bind
binding to Gal3 Peptide 3 ([1]; Peptide 3 (SEQ ID NO: 5)): bind
binding to Gal3 Peptide 4 [1]: bind
binding to Gal3 Peptide 7 [1]: bind and bound

Now from value to molecule:

binding to Gal3 Peptide 1 [1]: bind and bound
binding to Gal3 Peptide 7 [1]: bind and bound
B1: F847C.10B9: anti-Gal3 antibody (antibody, V domains shown)
VH: QIQLVQSGPEVKKPGETVKISCKASGYIFTNYGMNWVKQAPGKGLKWMGWINTYTGEPTYTDDFKGRFAFSLETSASTAYLQINNLKNEDTATYFCAKFGNYVGAMDYWGQGTSVTVSS
VL: DIRMTQSPSSLSASLGDTITITCHASQNINVWLSWYQQKPGNIPKLLIYKASNLHTGVPSRFSGSGSGTGFTLTISSLQPEDIATYYCQQGQSYPYTFGGGTKLELK

binding to Gal3 Peptide 1 [1]: bind and bound
binding to Gal3 Peptide 7 [1]: bind and bound
B2: F847C.26F5: anti-Gal3 antibody (antibody, V domains shown)
VH: B1 VH
VL: B1 VL with D1E, R3K, T5N

binding to Gal3 Peptide 1 [1]: bind and bound
binding to Gal3 Peptide 7 [1]: bind and bound
B3: F847C.12F12: anti-Gal3 antibody (antibody, V domains shown)
VH: B1 VH with V11L, I28T, T61V, Q82R
VL: B1 VL with R3Q, M4V, T5I

binding to Gal3 Peptide 6 ([1]; amino acids 51-70 of Gal3, listed as IMT006 (TB006)): bind and bound
B10: TB006: anti-Gal3 antibody (antibody, V domains shown)
VH: QVQLVQSGAEVKKPGASVKVSCKASGYSFTNYYMHWVRQAPGQRLEWMGWIYPGSGNTNYNEKFQGRVTITADTSASTAYMELSSLRSEDTAVYYCSTAPGGFDVWGQGTTVTVSS
VL: DIVMTQTPLSLSVTPGQPASISCKSSKSLLHSDGITYLYWYLQKPGQSPQLLIYRMSNLASGVPDRFSGSGSGTDFTLKISRVEAEDVGVYYCAQMLEFPLTFGQGTKLEIK
